From patent US20240407995A1, “BIOMINERALIZATION MATERIAL FOR TREATING DENTIN HYPERSENSITIVITY AND PROMOTING EPITAXIAL GROWTH OF ENAMEL, AND USE THEREOF” (SHAANXI NORMAL UNIVERSITY, priority 2022, published 2024)

Assay: Film-forming critical line of lysozyme concentration vs cysteine concentration
Type: physicochemical
Details: FIG. 2
Description: In order to study a film-forming critical line between a film-forming protein and cysteine, the inventors prepared different concentrations of film-forming protein solutions and cysteine solutions, and curves were drawn as shown in FIG. 2. […] However, when the protein concentration was 0.2 mg/mL, higher concentration of cysteine was required for film formation.

Substance: lysozyme [Lyz]
- protein concentration at which a small amount of cysteine could form a film: greater than or equal to 0.2 mg/mL
